The target of this experiment is Trypanosoma brucei ADAT3 (full-length, His-tagged) (Trypanosoma brucei). In words: cryo-EM structure.

The substance “Trypanosoma brucei ADAT2 (full-length, A87G/C117S) (enzyme)” yielded a stoichiometry N of 1.

Values taken from publication doi:10.1101/2022.06.16.496122.
